In the supplement of paper PMC6757056:
± gives the standard deviation of the averaged measurements.

B1: library; a variant is named by its letters at N, in order (parent)
chain: GCUGUCACCGAGAAACUGUGAAGUAUAUCUUAAACCUGGGCACUUAAAAGAUAUAUGGAGUUAGUAGUGCAACCUGCUCGGUCUGAUGAGUCCNNNNNNGGACGAAACAGC

Experiments:
cyclic di-GMP [1] = variants of: B1; test: normalized RNA/DNA level without ligand (relative to sTRSVctl = 100) (log10 (% of sTRSVctl)); HEK293T; ligand: cyclic di-GMP (c-di-GMP-II aptamer); higher = less ribozyme self-cleavage, higher mRNA level; conditions: reporter: mCherry (pCS4076), ligand present: no
Method in brief: (§1)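 Ribozyme switch library plasmids linked to reporters were introduced into HEK293T cells at 4 µg per 6-well well, with ligand, if any, added 1 h before. Total RNA was extracted with EDTA 72 h later, reverse-transcribed, amplified, barcoded and sequenced. RNA level was computed from RNA over DNA reads relative to a spiked-in non-cleaving sequence or the top sequences, then scaled and log-transformed. The top set was 25 sequences, values were ×100 and log10, and the cutoff was ≥100 DNA reads.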

cyclic di-GMP [2] = variants of: B1; test: normalized RNA/DNA level with ligand (relative to sTRSVctl = 100) (log10 (% of sTRSVctl)); HEK293T; ligand: cyclic di-GMP (c-di-GMP-II aptamer); ligand concentration (+) RNA-Seq: 1 mM; higher = less ribozyme self-cleavage, higher mRNA level; conditions: reporter: mCherry (pCS4076), ligand present: yes
Method in brief: as §1

Row | Variant | normalized RNA/DNA level without ligand (log10) (cyclic di-GMP [1]) | normalized RNA/DNA level with ligand (log10) (cyclic di-GMP [2])
1 | UUGUCU | 1.8 ± 0.03 | 1.92 ± 0.086
2 | GUUAUU | 1.679 ± 0.0041 | 1.83 ± 0.11
3 | GUUAUC | 1.51 ± 0.045 | 1.74 ± 0.067
4 | UUGGCG | 1.85 ± 0.022 | 1.94 ± 0.11
5 | UUGGCA | 1.76 ± 0.035 | 1.83 ± 0.037
6 | UUGGCC | 1.81 ± 0.031 | 1.88 ± 0.097
7 | GUUAGC | 1.72 ± 0.02 | 1.85 ± 0.12
8 | GUUAGU | 1.66 ± 0.017 | 1.8 ± 0.13
9 | GUGGUU | 1.617 ± 0.0057 | 1.78 ± 0.13
10 | UUUACG | 1.83 ± 0.057 | 1.91 ± 0.12
11 | UUUACA | 1.73 ± 0.037 | 1.85 ± 0.1
12 | UUUACU | 1.75 ± 0.031 | 1.88 ± 0.092
13 | UUUACC | 1.75 ± 0.028 | 1.87 ± 0.058
14 | UUUAAG | 1.72 ± 0.027 | 1.85 ± 0.11
15 | UUUAAA | 1.654 ± 0.0051 | 1.79 ± 0.081
16 | AUUCCU | 1.74 ± 0.044 | 1.86 ± 0.1
17 | AUUCCG | 1.75 ± 0.021 | 1.84 ± 0.078
18 | CUGCGU | 1.723 ± 0.013 | 1.84 ± 0.1
19 | CUGCGC | 1.823 ± 0.0074 | 1.92 ± 0.052
20 | GUGCGG | 1.86 ± 0.043 | 1.92 ± 0.08
21 | GUGCGU | 1.69 ± 0.052 | 1.84 ± 0.14
22 | GUGCGA | 1.6 ± 0.071 | 1.73 ± 0.1
23 | GUGCGC | 1.74 ± 0.057 | 1.88 ± 0.056
24 | CUGGUG | 1.39 ± 0.017 | 1.58 ± 0.16

Row | Variant | normalized RNA/DNA level without ligand (log10) (cyclic di-GMP [1]) | normalized RNA/DNA level with ligand (log10) (cyclic di-GMP [2])
25 | CUGGUA | 1.38 ± 0.086 | 1.59 ± 0.076
26 | CUGGUU | 1.67 ± 0.025 | 1.83 ± 0.08
27 | CUGGUC | 1.68 ± 0.032 | 1.8 ± 0.14
28 | UUGUGA | 1.599 ± 0.011 | 1.79 ± 0.11
29 | UUGUGU | 1.716 ± 0.015 | 1.88 ± 0.11
30 | UUGUGG | 1.795 ± 0.0063 | 1.9 ± 0.1
31 | UUGUGC | 1.75 ± 0.027 | 1.86 ± 0.052
32 | GUGCAG | 1.86 ± 0.06 | 1.89 ± 0.13
33 | GUGGGG | 1.65 ± 0.021 | 1.8 ± 0.14
34 | GUGGGU | 1.66 ± 0.081 | 1.85 ± 0.064
35 | GUGGGA | 1.53 ± 0.073 | 1.72 ± 0.07
36 | GUGGGC | 1.44 ± 0.058 | 1.68 ± 0.13
37 | GUGCCA | 1.785 ± 0.015 | 1.9 ± 0.12
38 | GUGCCU | 1.81 ± 0.04 | 1.87 ± 0.1
39 | GUGCCC | 1.782 ± 0.016 | 1.84 ± 0.099
40 | AUGGCU | 1.75 ± 0.031 | 1.86 ± 0.15
41 | AUGGCA | 1.61 ± 0.02 | 1.75 ± 0.046
42 | AUGGCC | 1.78 ± 0.024 | 1.9 ± 0.13
43 | AUGGCG | 1.69 ± 0.039 | 1.83 ± 0.053
44 | GUUCCU | 1.76 ± 0.079 | 1.89 ± 0.13
45 | GUUCCG | 1.82 ± 0.039 | 1.94 ± 0.1
46 | GUUCCC | 1.8 ± 0.021 | 1.9 ± 0.13
47 | GUGGCA | 1.81 ± 0.027 | 1.91 ± 0.097
48 | GUGGCU | 1.76 ± 0.029 | 1.86 ± 0.074

Row | Variant | normalized RNA/DNA level without ligand (log10) (cyclic di-GMP [1]) | normalized RNA/DNA level with ligand (log10) (cyclic di-GMP [2])
49 | GUGGCG | 1.85 ± 0.022 | 1.87 ± 0.094
50 | CUGUGA | 1.54 ± 0.075 | 1.77 ± 0.081
51 | CUGUGG | 1.7 ± 0.048 | 1.85 ± 0.11
52 | CUGUGC | 1.739 ± 0.013 | 1.85 ± 0.095
53 | CUGUGU | 1.75 ± 0.027 | 1.86 ± 0.11
54 | AUGUAA | 1.54 ± 0.078 | 1.68 ± 0.14
55 | AUGUAG | 1.59 ± 0.017 | 1.77 ± 0.11
56 | CUGUUC | 1.64 ± 0.038 | 1.79 ± 0.12
57 | CUGUUU | 1.575 ± 0.0091 | 1.72 ± 0.12
58 | CUGUUG | 1.56 ± 0.035 | 1.69 ± 0.076
59 | UUGCGC | 1.74 ± 0.027 | 1.83 ± 0.072
60 | UUGCGG | 1.84 ± 0.045 | 1.94 ± 0.04
61 | UUGCGA | 1.778 ± 0.01 | 1.88 ± 0.076
62 | GUUACA | 1.661 ± 0.0095 | 1.8 ± 0.11
63 | GUUACG | 1.65 ± 0.075 | 1.81 ± 0.083
64 | GUUACC | 1.79 ± 0.059 | 1.9 ± 0.1
65 | CUUACC | 1.77 ± 0.049 | 1.86 ± 0.15
66 | CUUACG | 1.82 ± 0.085 | 1.87 ± 0.19
67 | CUUACU | 1.59 ± 0.079 | 1.79 ± 0.048
68 | UUUAGA | 1.716 ± 0.011 | 1.87 ± 0.086
69 | UUUAGC | 1.76 ± 0.054 | 1.86 ± 0.14
70 | UUUAGG | 1.87 ± 0.057 | 1.96 ± 0.14
71 | CUUCGC | 1.79 ± 0.024 | 1.83 ± 0.056
72 | CUUCGU | 1.8 ± 0.04 | 1.87 ± 0.094

Row | Variant | normalized RNA/DNA level without ligand (log10) (cyclic di-GMP [1]) | normalized RNA/DNA level with ligand (log10) (cyclic di-GMP [2])
73 | CUUCGG | 1.82 ± 0.028 | 1.886 ± 0.0058
74 | CUUCGA | 1.71 ± 0.026 | 1.84 ± 0.065
75 | UUGCUU | 1.727 ± 0.0027 | 1.88 ± 0.12
76 | UUGCUA | 1.62 ± 0.052 | 1.81 ± 0.07
77 | UUGCUC | 1.788 ± 0.015 | 1.86 ± 0.071
78 | UUGCUG | 1.7171 ± 3.9e-05 | 1.84 ± 0.14
79 | GUGUGG | 1.74 ± 0.041 | 1.86 ± 0.11
80 | GUGUGA | 1.41 ± 0.11 | 1.67 ± 0.084
81 | GUGUGU | 1.595 ± 0.003 | 1.77 ± 0.12
82 | UUUCCG | 1.8104 ± 0.0015 | 1.92 ± 0.056
83 | UUUCCC | 1.83 ± 0.07 | 1.94 ± 0.13
84 | UUUCCA | 1.78 ± 0.028 | 1.9 ± 0.13
85 | UUUCCU | 1.812 ± 0.016 | 1.92 ± 0.1
86 | CUGGGA | 1.55 ± 0.09 | 1.74 ± 0.093
87 | CUGGGG | 1.648 ± 0.0018 | 1.83 ± 0.19
88 | CUGGGU | 1.71 ± 0.033 | 1.85 ± 0.13
89 | CUGGGC | 1.733 ± 0.0023 | 1.88 ± 0.09
90 | AUGCGU | 1.679 ± 0.011 | 1.79 ± 0.099
91 | AUGCGG | 1.74 ± 0.024 | 1.82 ± 0.098
92 | AUGCGC | 1.732 ± 0.016 | 1.86 ± 0.099
93 | UUGGGU | 1.68 ± 0.024 | 1.84 ± 0.088
94 | UUGGGC | 1.72 ± 0.023 | 1.84 ± 0.091
95 | UUGGGA | 1.57 ± 0.1 | 1.72 ± 0.1
96 | UUGGGG | 1.61 ± 0.057 | 1.78 ± 0.094

Row | Variant | normalized RNA/DNA level without ligand (log10) (cyclic di-GMP [1]) | normalized RNA/DNA level with ligand (log10) (cyclic di-GMP [2])
97 | CUUAAG | 1.69 ± 0.05 | 1.89 ± 0.079
98 | CUUAAC | 1.679 ± 0.014 | 1.8 ± 0.079
99 | GUGCUU | 1.71 ± 0.025 | 1.84 ± 0.14
100 | GUGCUA | 1.646 ± 0.0015 | 1.8 ± 0.091
101 | GUGCUG | 1.75 ± 0.024 | 1.86 ± 0.12
102 | GUGCUC | 1.505 ± 0.0047 | 1.65 ± 0.17
103 | CUGCCG | 1.78 ± 0.011 | 1.92 ± 0.064
104 | CUGCCU | 1.64 ± 0.028 | 1.81 ± 0.15
105 | CUGCCA | 1.613 ± 0.0037 | 1.76 ± 0.18
106 | AUUCGA | 1.58 ± 0.023 | 1.71 ± 0.066
107 | AUUCGU | 1.79 ± 0.024 | 1.86 ± 0.12
108 | GUUCAG | 1.77 ± 0.023 | 1.86 ± 0.12
109 | GUUCAC | 1.737 ± 0.013 | 1.87 ± 0.09
110 | GUUCAA | 1.62 ± 0.059 | 1.81 ± 0.083
111 | UUUCGC | 1.789 ± 0.0088 | 1.89 ± 0.14
112 | UUUCGU | 1.72 ± 0.025 | 1.86 ± 0.083
113 | UUUCGG | 1.8 ± 0.066 | 1.93 ± 0.12
114 | AUUAAU | 1.674 ± 0.015 | 1.8 ± 0.12
115 | AUUAAC | 1.655 ± 0.015 | 1.76 ± 0.15
116 | AUUAAG | 1.55 ± 0.041 | 1.75 ± 0.14
